Results: publication PMC12444478, “Structural insights into the substrate transport mechanism of the amino acid transporter complex” (The Journal of Biological Chemistry, 2025)

Biological target: T1, 4F2hc (CD98hc, SLC3A2), isoform b (human, UniProt P08195-5 1-631)
T1 construct: Purified as a complex with m1 (LAT1); also called heavy chain; source: HEK293F, coexpressed with LAT1, purified (anti-FLAG resin, nickel-NTA, size-exclusion chromatography in GDN)
T1 sequence (looked up): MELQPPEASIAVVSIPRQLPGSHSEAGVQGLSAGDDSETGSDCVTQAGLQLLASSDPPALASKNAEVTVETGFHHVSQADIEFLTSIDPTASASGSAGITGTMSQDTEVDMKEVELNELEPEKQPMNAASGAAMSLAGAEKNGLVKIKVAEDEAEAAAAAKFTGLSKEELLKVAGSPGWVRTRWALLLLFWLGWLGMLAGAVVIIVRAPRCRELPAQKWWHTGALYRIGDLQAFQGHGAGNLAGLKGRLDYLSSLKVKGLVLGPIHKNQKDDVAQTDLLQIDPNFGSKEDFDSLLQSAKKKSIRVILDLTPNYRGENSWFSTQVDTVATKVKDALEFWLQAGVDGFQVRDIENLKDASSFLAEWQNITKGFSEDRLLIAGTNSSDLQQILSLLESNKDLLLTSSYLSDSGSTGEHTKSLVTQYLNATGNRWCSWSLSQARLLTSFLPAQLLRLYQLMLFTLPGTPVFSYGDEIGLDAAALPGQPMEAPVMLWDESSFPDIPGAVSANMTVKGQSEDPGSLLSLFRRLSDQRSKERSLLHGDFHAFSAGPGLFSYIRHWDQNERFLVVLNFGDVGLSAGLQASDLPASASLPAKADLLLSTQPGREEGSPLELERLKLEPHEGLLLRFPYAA
Test: cryo-EM structure; LAT1-4F2hc coexpressed and purified as a complex in 25 mM Hepes pH 7.5, 150 mM NaCl, 0.01% GDN; incubated with 10 mM Leu, 1 mM Trp, 1 mM L-DOPA or 1 mM Tyr for 2 h; four structures
Settings: both partners purified

- binding result: binds
B1: L-type amino acid transporter 1 (LAT1, SLC7A5) (natural protein)
chain: not shown
notes: LAT1 (SLC7A5), human, full-length cDNA NM_003486.7 in pCAG vector; Purified as a complex with m2 (4F2hc); also called light chain; source: HEK293F, coexpressed with 4F2hc, purified (anti-FLAG resin, nickel-NTA, size-exclusion chromatography in GDN)
